Results taken from US20250019439A1 (Adimab, published 2025).

How the values were obtained:
[1] = molecular target: T1, ADI-74967; assay: SPR Carterra avidity, yeast anti-ID
T1 construct: pH-dependent anti-CD3 antibody made in CHO cells
Description: (§1) Kinetic analysis was conducted at 25° C. in an HBSTE running buffer system (Carterra Cat #3630) using a Carterra LSA (Carterra USA, Salt Lake City, UT). The sample compartment was maintained at 20° C. for the duration of each experiment.
(§2) For antibody capture experiments, a goat anti-human Fc antibody (Jackson ImmunoResearch) was covalently coupled to an HC30M sensor chip surface via standard amine coupling (1:1 EDC:NHS) and then blocked with ethanolamine (1.0 M, pH 8.5). Covalent coupling steps were performed in 25 mM MES buffer (Carterra, Cat #3625) plus 0.05% Tween20. The anti-CD3 antibodies (100 nM in running buffer) were flowed over discrete regions of interest on the chip surface for 5 minutes. […] Dissociation of the anti-idiotype antibodies was monitored for 300s. Several blank buffer samples were injected over the entire chip surface at the start of each non-regenerative kinetic cycle. The preceding blank buffer injection was used for blank surface subtraction. At the end of each non-regenerative kinetic cycle, all surfaces were regenerated via two 30s injections of 10 mM glycine, pH 1.7.
(§3) For data processing and fitting, sensorgrams were double reference subtracted with a baseline drift correction of 4 RU. Sensorgrams were y-aligned and baseline corrected, filtered and cropped to include only the association and dissociation steps. Data was fitted to a 1:1 binding model using Carterra Kinetics Data Analysis software version 1.7.1.3055.

[2] = molecular target: T2, ADI-26916 IgG; assay: SPR Carterra avidity, yeast anti-ID
T2 construct: anti-CD3 IgG
Description: as §1, §2, §3

[3] = molecular target: T3, ADI-67450; assay: SPR Carterra avidity, yeast anti-ID
T3 construct: anti-CD3 antibody made in CHO cells, captured by anti-human Fc
T3 sequence (VH, as listed by the source limits assumed, chain 1 of 2): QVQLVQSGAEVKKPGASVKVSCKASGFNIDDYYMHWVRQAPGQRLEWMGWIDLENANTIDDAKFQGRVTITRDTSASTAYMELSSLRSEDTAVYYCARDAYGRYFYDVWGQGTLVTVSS
T3 sequence (VL, as listed by the source limits assumed, chain 2 of 2): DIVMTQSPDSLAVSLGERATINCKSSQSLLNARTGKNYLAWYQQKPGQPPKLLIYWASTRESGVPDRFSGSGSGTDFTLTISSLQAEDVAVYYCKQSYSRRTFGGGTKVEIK
Description: as §1, §2, §3

[4] = molecular target: T4, ADI-74965; assay: SPR Carterra avidity, yeast anti-ID
T4 construct: pH-dependent anti-CD3 antibody made in CHO cells
T4 sequence (VH, as listed by the source, chain 1 of 2): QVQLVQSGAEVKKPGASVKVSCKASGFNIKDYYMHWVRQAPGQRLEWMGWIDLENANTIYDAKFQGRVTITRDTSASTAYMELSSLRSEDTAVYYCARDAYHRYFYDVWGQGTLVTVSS
T4 sequence (VL, as listed by the source, chain 2 of 2): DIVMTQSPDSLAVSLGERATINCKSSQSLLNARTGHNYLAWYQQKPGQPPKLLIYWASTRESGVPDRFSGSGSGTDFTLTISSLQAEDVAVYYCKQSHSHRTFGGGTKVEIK
Description: as §1, §2, §3

[5] = molecular target: T5, ADI-48650; assay: SPR Carterra avidity, yeast anti-ID
T5 construct: pH-dependent anti-CD3 antibody made in CHO cells
T5 sequence (VH, as listed by the source, chain 1 of 2): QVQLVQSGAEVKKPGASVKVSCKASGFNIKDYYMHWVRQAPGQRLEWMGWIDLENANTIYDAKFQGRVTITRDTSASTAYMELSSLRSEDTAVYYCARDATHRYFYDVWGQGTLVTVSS
T5 sequence (VL, as listed by the source, chain 2 of 2): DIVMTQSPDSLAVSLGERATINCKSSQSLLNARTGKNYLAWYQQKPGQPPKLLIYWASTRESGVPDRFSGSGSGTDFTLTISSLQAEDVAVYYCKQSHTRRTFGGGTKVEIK
Description: as §1, §2, §3

[6] = molecular target: T6, ADI-76359; assay: SPR Carterra avidity, yeast anti-ID
T6 construct: anti-CD3 antibody made in CHO cells, captured by anti-human Fc
Description: as §1, §2, §3

[7] = molecular target: T7, ADI-74968; assay: SPR Carterra avidity, yeast anti-ID
T7 construct: pH-dependent anti-CD3 antibody made in CHO cells
T7 sequence (VL, as listed by the source, chain 2 of 2): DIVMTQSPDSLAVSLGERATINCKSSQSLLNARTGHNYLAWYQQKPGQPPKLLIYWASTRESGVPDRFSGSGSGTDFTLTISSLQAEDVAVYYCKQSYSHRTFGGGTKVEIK
Description: as §1, §2, §3

[8] = molecular target: T8, ADI-50024; assay: SPR Carterra avidity, yeast anti-ID
T8 construct: anti-CD3 antibody made in CHO cells, captured by anti-human Fc
T8 sequence (VH, as listed by the source limits assumed, chain 1 of 2): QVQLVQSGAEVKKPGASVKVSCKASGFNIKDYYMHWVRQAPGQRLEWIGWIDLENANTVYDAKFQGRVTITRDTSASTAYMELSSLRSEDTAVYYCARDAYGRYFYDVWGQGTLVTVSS
T8 sequence (VL, as listed by the source limits assumed, chain 2 of 2): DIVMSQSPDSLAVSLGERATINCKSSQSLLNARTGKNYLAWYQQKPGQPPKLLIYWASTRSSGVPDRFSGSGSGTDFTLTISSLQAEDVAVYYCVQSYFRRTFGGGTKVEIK
Description: as §1, §2, §3

[9] = molecular target: T9, ADI-26919; assay: SPR Carterra avidity, yeast anti-ID
T9 construct: anti-CD3 antibody made in CHO cells, captured by anti-human Fc
Description: as §1, §2, §3

[10] = molecular target: T10, ADI-76360; assay: SPR Carterra avidity, yeast anti-ID
T10 construct: anti-CD3 antibody made in CHO cells, captured by anti-human Fc
T10 sequence (VH, as listed by the source, chain 1 of 2): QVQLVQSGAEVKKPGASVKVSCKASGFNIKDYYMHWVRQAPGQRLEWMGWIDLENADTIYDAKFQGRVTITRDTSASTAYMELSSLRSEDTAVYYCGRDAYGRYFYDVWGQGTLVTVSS
T10 sequence (VL, as listed by the source, chain 2 of 2): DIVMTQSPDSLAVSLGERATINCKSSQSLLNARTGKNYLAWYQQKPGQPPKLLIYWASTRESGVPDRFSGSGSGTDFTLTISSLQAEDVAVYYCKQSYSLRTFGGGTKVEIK
Description: as §1, §2, §3

[11] = molecular target: T11, ADI-76361; assay: SPR Carterra avidity, yeast anti-ID
T11 construct: anti-CD3 antibody made in CHO cells, captured by anti-human Fc
T11 sequence (VH, as listed by the source, chain 1 of 2): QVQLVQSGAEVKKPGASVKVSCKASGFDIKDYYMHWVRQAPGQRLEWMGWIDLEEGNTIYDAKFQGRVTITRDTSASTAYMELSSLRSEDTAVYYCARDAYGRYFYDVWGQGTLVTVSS
Description: as §1, §2, §3

[12] = molecular target: T12, ADI-48592; assay: SPR Carterra avidity, yeast anti-ID
T12 construct: pH-dependent anti-CD3 antibody made in CHO cells
Description: as §1, §2, §3

[13] = molecular target: T13, ADI-76358; assay: SPR Carterra avidity, yeast anti-ID
T13 construct: anti-CD3 antibody made in CHO cells, captured by anti-human Fc
T13 sequence (VH, as listed by the source, chain 1 of 2): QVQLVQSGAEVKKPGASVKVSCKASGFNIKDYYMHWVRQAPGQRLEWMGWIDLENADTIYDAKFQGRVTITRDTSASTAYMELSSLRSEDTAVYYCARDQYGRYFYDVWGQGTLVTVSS
Description: as §1, §2, §3

[14] = molecular target: T14, ADI-26912; assay: SPR Carterra avidity, yeast anti-ID
T14 construct: anti-CD3 antibody made in CHO cells, captured by anti-human Fc
Description: as §1, §2, §3

[15] = molecular target: T15, ADI-74966; assay: SPR Carterra avidity, yeast anti-ID
T15 construct: pH-dependent anti-CD3 antibody made in CHO cells
Description: as §1, §2, §3

[16] = molecular target: T16, ADI-26913 IgG; assay: SPR Carterra avidity, yeast anti-ID
T16 construct: anti-CD3 IgG
Description: as §1, §2, §3

[17] = molecular target: T17, ADI-48576; assay: SPR Carterra avidity, yeast anti-ID
T17 construct: pH-dependent anti-CD3 antibody made in CHO cells
T17 sequence (VH, as listed by the source, chain 1 of 2): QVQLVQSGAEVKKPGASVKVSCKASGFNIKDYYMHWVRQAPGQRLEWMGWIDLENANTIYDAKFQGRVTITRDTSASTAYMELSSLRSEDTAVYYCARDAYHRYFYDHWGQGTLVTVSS
T17 sequence (VL, as listed by the source, chain 2 of 2): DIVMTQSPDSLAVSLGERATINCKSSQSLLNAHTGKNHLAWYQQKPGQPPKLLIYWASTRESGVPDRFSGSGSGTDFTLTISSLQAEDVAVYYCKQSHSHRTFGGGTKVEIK
Description: as §1, §2, §3

[18] = molecular target: T18, ADI-67447; assay: SPR Carterra avidity, yeast anti-ID
T18 construct: anti-CD3 antibody made in CHO cells, captured by anti-human Fc
T18 sequence (VH, as listed by the source limits assumed, chain 1 of 2): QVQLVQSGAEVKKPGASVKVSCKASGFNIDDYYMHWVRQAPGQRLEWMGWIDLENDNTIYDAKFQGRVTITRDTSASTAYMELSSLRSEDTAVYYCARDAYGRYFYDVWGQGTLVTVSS
Description: as §1, §2, §3

[19] = molecular target: T19, ADI-26943; assay: SPR Carterra avidity, yeast anti-ID
T19 construct: anti-CD3 antibody made in CHO cells, captured by anti-human Fc
Description: as §1, §2, §3

[20] = molecular target: T20, ADI-26924; assay: SPR Carterra avidity, yeast anti-ID
T20 construct: anti-CD3 antibody made in CHO cells, captured by anti-human Fc
Description: as §1, §2, §3

[21] = molecular target: T21, ADI-76362; assay: SPR Carterra avidity, yeast anti-ID
T21 construct: anti-CD3 antibody made in CHO cells, captured by anti-human Fc
T21 sequence (VH, as listed by the source, chain 1 of 2): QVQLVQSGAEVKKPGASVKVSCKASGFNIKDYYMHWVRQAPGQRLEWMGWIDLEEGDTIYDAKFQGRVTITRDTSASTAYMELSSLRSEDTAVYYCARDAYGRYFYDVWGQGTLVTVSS
Description: as §1, §2, §3

[22] = molecular target: T22, ADI-22523 Fab; assay: BLI; tip anti-ID IgG, solution ADI-22523 Fab
T22 construct: anti-CD3 Fab by papain digestion of the IgG
Description: (§4) ForteBio affinity measurements were performed generally as previously described (Estep et al., MAbs. 2013 5(2):270-8). Briefly, ForteBio affinity measurements were performed by loading antibody IgG or Fabs on-line onto AHC sensors. Sensors were equilibrated off-line in assay buffer for 30 minutes and then monitored on-line for 60 seconds for baseline establishment. For avid binding measurement, sensors with loaded antibodies were exposed to IgG or Fab solutions for 3 minutes, afterwards they were transferred to assay buffer for 3 minutes for off-rate measurement. Kinetics data were fit using a 1:1 binding model in the data analysis software provided by ForteBio to obtain equilibrium dissociation constant (KD=koff/kₒₙ) values. In each column, tip-immobilized antibodies are listed first and solution antibodies second.

[23] = molecular target: T23, ADI-26920 IgG; assay: SPR Carterra avidity, yeast anti-ID, *koff limit
T23 construct: anti-CD3 IgG
T23 sequence (VH, as listed by the source limits assumed, chain 1 of 2): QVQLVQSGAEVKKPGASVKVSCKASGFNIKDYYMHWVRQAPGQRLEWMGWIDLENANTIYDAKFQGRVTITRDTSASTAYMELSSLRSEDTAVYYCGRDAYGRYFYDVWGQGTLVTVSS
Description: as §1, §2, §3

[24] = molecular target: T24, ADI-76357; assay: SPR Carterra avidity, yeast anti-ID, *koff limit
T24 construct: anti-CD3 antibody made in CHO cells, captured by anti-human Fc
T24 sequence (VH, as listed by the source, chain 1 of 2): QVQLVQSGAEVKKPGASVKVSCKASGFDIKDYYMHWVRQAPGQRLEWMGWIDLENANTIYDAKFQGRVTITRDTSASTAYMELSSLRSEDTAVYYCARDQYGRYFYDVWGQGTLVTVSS
Description: as §1, §2, §3

[25] = molecular target: T25, ADI-26906 IgG; assay: SPR Carterra avidity, yeast anti-ID, *koff limit
T25 construct: anti-CD3 IgG
Description: as §1, §2, §3

[26] = molecular target: T26, CTL-62227; assay: SPR Carterra, yeast anti-ID
T26 construct: also called odronextamab
T26 sequence (VH, as listed by the source, chain 1 of 2): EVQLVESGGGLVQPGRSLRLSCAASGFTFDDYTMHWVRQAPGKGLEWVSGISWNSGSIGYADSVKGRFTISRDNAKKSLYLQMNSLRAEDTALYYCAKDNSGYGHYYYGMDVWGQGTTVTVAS
T26 sequence (VL, as listed by the source, chain 2 of 2): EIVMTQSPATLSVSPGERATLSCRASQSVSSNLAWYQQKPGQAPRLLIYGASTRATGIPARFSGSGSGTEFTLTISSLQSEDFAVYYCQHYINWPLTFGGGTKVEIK
Description: as §1, §2, §3

[27] = molecular target: T27, ADI-67445; assay: SPR Carterra, yeast anti-ID
T27 construct: anti-CD3 antibody made in CHO cells, captured by anti-human Fc
T27 sequence (VH, as listed by the source limits assumed, chain 1 of 2): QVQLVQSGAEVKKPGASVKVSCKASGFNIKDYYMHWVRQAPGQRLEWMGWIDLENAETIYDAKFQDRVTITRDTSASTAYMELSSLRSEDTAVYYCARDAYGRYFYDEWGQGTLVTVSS
Description: as §1, §2, §3

[28] = molecular target: T28, CTL-62240; assay: SPR Carterra, yeast anti-ID
T28 construct: also called ONO-4685
Description: as §1, §2, §3

[29] = molecular target: T29, ADI-70330; assay: SPR Carterra, yeast anti-ID
T29 construct: anti-CD3 antibody made in CHO cells, captured by anti-human Fc
Description: as §1, §2, §3

[30] = molecular target: T30, ADI-70326; assay: SPR Carterra, yeast anti-ID
T30 construct: anti-CD3 antibody made in CHO cells, captured by anti-human Fc
T30 sequence (VH, as listed by the source limits assumed, chain 1 of 2): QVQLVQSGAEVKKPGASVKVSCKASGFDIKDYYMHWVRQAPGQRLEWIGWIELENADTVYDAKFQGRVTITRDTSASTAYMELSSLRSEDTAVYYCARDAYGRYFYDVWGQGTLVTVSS
Description: as §1, §2, §3

[31] = molecular target: T31, CTL-62223; assay: SPR Carterra, yeast anti-ID
T31 construct: also called mosunetuzumab
Description: as §1, §2, §3

[32] = molecular target: T32, ADI-70327; assay: SPR Carterra, yeast anti-ID
T32 construct: anti-CD3 antibody made in CHO cells, captured by anti-human Fc
Description: as §1, §2, §3

[33] = molecular target: T33, ADI-26915; assay: SPR Carterra, yeast anti-ID
T33 construct: anti-CD3 antibody made in CHO cells, captured by anti-human Fc
Description: as §1, §2, §3

[34] = molecular target: T34, ADI-26921 IgG; assay: SPR Carterra, yeast anti-ID
T34 construct: anti-CD3 IgG
Description: as §1, §2, §3

[35] = molecular target: T35, CTL-62228; assay: SPR Carterra, yeast anti-ID
T35 construct: also called glofitamab
Description: as §1, §2, §3

[36] = molecular target: T36, ADI-48587; assay: SPR Carterra, yeast anti-ID
T36 construct: pH-dependent anti-CD3 antibody made in CHO cells
Description: as §1, §2, §3

[37] = molecular target: T37, ADI-26909; assay: SPR Carterra, yeast anti-ID
T37 construct: anti-CD3 antibody made in CHO cells, captured by anti-human Fc
T37 sequence (VH, as listed by the source limits assumed, chain 1 of 2): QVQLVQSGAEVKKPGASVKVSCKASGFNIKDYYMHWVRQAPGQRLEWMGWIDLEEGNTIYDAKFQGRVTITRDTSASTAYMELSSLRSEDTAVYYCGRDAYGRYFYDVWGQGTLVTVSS
Description: as §1, §2, §3

[38] = molecular target: T38, ADI-22523 IgG; assay: BLI; tip anti-ID IgG, solution ADI-22523 IgG
T38 construct: anti-CD3 IgG
T38 sequence (VH, as listed by the source limits assumed, chain 1 of 2): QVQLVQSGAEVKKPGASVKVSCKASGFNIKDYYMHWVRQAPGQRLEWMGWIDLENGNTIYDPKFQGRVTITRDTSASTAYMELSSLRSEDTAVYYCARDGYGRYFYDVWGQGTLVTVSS
T38 sequence (VL, as listed by the source limits assumed, chain 2 of 2): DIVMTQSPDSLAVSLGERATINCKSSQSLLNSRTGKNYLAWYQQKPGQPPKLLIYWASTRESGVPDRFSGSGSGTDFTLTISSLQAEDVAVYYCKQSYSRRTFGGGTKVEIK
Description: as §4

B1: ADI-34142 (antibody, V domains shown)
VH: EVQLLESGGGLVQPGGSLRLSCAASGFTFSSYAMSWVRQAPGKGLEWVSTISGSGGSTYYADSVKGRFTISRDNSKNTLYLQMNSLRAEDTAVYYCARLGGRRGSGSSYYYYYGMDVWGQGTTVTVSS
VL: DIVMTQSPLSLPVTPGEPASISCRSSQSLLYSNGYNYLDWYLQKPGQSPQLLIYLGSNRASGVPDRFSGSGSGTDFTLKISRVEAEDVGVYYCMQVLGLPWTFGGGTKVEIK
notes: anti-ID IgG
binding result [1]: binds | Kd [2]: 0.021 µM | binding result [3]: binds | binding result [4]: binds | binding result [5]: binds | Kd [6]: 0.0073 µM | Kd [7]: 0.045 µM | binding result [8]: binds | Kd [9]: 0.018 µM | Kd [10]: 0.036 µM | binding result [11]: binds | binding result [12]: binds | binding result [13]: binds | binding result [14]: binds | binding result [15]: binds | Kd [16]: 0.011 µM | Kd [17]: 0.076 µM | Kd [18]: 0.021 µM | Kd [19]: 0.0065 µM | Kd [20]: 0.032 µM | binding result [21]: binds | Kd [22]: 0.0147 µM | Kd [23]: 0.0061 µM | Kd [24]: 0.0057 µM | Kd [25]: 0.012 µM | binding result [26]: no binding (tested: up to 200 nM) | binding result [27]: no binding (tested: up to 200 nM) | binding result [28]: no binding (tested: up to 200 nM) | binding result [29]: no binding (tested: up to 200 nM) | binding result [30]: no binding (tested: up to 200 nM) | binding result [31]: no binding (tested: up to 200 nM) | binding result [32]: no binding (tested: up to 200 nM) | binding result [33]: no binding (tested: up to 200 nM) | binding result [34]: no binding (tested: up to 200 nM) | binding result [35]: no binding (tested: up to 200 nM) | binding result [36]: no binding (tested: up to 200 nM) | binding result [37]: no binding (tested: up to 200 nM) | Kd [38]: 0.00411 µM
